Laboratory results taken from PMC10320493.

What was measured:
[1] = molecular target: human δ-opioid receptor (pcDNA3.1-human DOR) (human) (UniProt P41143)
[2] = molecular target: human μ-opioid receptor (pcDNA3.1-human MOR) (human) (UniProt P35372); experiment: radioligand binding
[3] = molecular target: human μ-opioid receptor (pcDNA3.1-human MOR) (human) (UniProt P35372)
[4] = molecular target: human μ-opioid receptor (pcDNA3.1-human MOR) (human) (UniProt P35372); remark: listed apart in the source

Gi/o-mediated cAMP inhibition (GloSensor, HEKT cells), pEC50 [1] | Kd [2] [nM] | pKd [2] | maximal net BRET in the G protein (GoA) dissociation assay [3] | Gi/o-mediated cAMP inhibition (GloSensor, HEKT cells), pEC50 [4] | Substance
9.69 | – | – | – | – | DADLE (peptide)
– | 4.37 | 8.36 | 0.15 | 8.65 | [D-Ala2, N-MePhe4, Gly-ol]-enkephalin (peptide)
